Consider eight substances from patent publication US20050203012A1.

The target in test [1] is human PTH-1 receptor (human) (UniProt Q03431). Put plainly: cell-based or functional assay.
The target is the same in test [2]. Briefly: radioligand binding on HKRK B7 cells, no competitor, 2-8° C. for 6 hr.
Test [3] has the same target. Briefly: competition with ^125I-[Nle^8,21, Tyr^34]rat PTH-(1-34) on HKRK B7 cells.

human PTH-1 receptor (human), sequence (Q03431 27-593): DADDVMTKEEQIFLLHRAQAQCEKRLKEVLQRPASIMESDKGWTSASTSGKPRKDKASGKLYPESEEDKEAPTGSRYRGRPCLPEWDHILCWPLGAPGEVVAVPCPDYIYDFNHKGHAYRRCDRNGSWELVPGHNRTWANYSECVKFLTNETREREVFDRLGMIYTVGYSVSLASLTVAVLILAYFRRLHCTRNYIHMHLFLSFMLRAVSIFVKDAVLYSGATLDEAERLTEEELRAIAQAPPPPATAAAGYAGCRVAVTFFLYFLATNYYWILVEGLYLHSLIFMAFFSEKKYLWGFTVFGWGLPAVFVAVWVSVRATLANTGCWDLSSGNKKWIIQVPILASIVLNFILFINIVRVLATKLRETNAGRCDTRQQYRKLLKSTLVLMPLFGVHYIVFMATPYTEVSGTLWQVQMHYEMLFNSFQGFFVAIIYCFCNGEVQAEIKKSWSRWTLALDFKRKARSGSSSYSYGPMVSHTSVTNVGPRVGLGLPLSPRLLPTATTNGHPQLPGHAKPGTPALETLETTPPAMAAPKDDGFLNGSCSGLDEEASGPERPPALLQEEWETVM

In turn, “hPTHrP(1-36) (from UniProt P12272 37-72) (peptide)” displayed a PLC activation at 1000 nM peptide (percent of basal) in test [1] of 178.

For the substance “desamino-hPTHrP(1-36) (from UniProt P12272 37-72) (peptide)”, the PLC activation at 1000 nM peptide (percent of basal) in test [1] came out at 101.

“hPTH-(2-34) (from UniProt P01270 33-65) (peptide)”: the PLC Activity (% Basal) at 1000 nM in test [1] amounted to 88 % Basal.

Turning to “desamino-[Ala^1]hPTH-(1-34) (from UniProt P01270 32-65) (peptide)”, the PLC Activity (% Basal) at 1000 nM in test [1] was 106 % Basal.

Consider “desamino-[Gly^1]hPTH-(1-34) (from UniProt P01270 32-65) (peptide)”, for which the PLC Activity (% Basal) at 1000 nM in test [1] was determined as 108 % Basal.

Take “^125I-[Nle^8,21, Tyr^34]rat PTH-(1-34) (from UniProt P04089 32-65) (peptide)”: the cell-associated radioactivity (binding), basal in test [2] came to 25500 cpm/well.

The substance “[Tyr^0]hPTH-(1-34) (from UniProt P01270 32-65) (peptide)” showed a PLC activity at 1000 nM peptide (percent of basal) in test [1] of 105.

Turning to “hPTH-(1-34) (from UniProt P01270 32-65) (peptide)”, the cell-associated radioactivity (binding) in the presence of maximal concentrations of hPTH-(1-34) in test [3] was 956 cpm/well. In test [1], the Cyclic AMP accumulation (% Maximum) at 0.01 nM was 1.7 % Maximum, the Cyclic AMP accumulation (% Maximum) at 0.1 nM came out at 14 % Maximum, the Cyclic AMP accumulation (% Maximum) at 1 nM was found to be 45 % Maximum and the Cyclic AMP accumulation (% Maximum) at 10 nM was determined as 93 % Maximum. In test [1], this substance displayed a Cyclic AMP accumulation (% Maximum) at 100 nM of 96 % Maximum, a Cyclic AMP accumulation (% Maximum) at 1000 nM of 100 % Maximum, an EC50 of PLC activation of 30 nM and an IP3 Formation (% Maximum) at 1000 nM of 87 % Maximum. In test [1], this substance gave an IP3 Formation (% Maximum) at 10000 nM of 100 % Maximum, an IP3 formation at maximal concentrations of hPTH-(1-34) of 1910 cpm/well, a PLC Activity (% Basal) at 1000 nM of 854 % Basal and a cAMP accumulation at maximal concentrations of hPTH-(1-34) (pmoles/well/15 min) of 207.
